Source: patent US20150239980A1 (NEOTOPE BOSCIENCES, published 2015)
One block for each binder: values may come before it.

How the values were obtained:
recombinant hMCAM-His [1] = biological target: T1, recombinant hMCAM-His (human, UniProt P43121 24-559); assay: competitive ELISA on hMCAM-His, competitor biotinylated rodent or chimeric 2107; Expt. #1; vs rodent 2107
T1 construct: not shown: His tag
T1 chain: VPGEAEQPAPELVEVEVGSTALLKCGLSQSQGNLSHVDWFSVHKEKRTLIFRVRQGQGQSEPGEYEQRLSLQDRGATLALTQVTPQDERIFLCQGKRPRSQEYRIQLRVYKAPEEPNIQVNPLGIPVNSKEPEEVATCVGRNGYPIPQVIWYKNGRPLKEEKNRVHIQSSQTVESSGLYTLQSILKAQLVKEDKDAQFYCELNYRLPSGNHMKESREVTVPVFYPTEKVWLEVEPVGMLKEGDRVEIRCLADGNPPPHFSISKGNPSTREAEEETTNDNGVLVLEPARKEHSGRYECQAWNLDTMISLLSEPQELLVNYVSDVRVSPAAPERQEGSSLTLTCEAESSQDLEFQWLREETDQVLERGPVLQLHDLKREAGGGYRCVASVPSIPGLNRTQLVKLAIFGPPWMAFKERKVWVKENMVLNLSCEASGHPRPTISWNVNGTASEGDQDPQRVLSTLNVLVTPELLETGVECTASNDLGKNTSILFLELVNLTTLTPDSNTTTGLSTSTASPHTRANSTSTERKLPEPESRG
Outline: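 Plates coated with recombinant hMCAM-His and casein-blocked; biotinylated rodent or chimeric antibody at subsaturating level competed by 3× serial concentrations of unlabeled humanized, rodent or chimeric antibody. Bound biotinylated antibody detected with streptavidin-HRP/TMB at OD450; competitor IC50 fitted.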

recombinant hMCAM-His [2] = biological target: T1, recombinant hMCAM-His; assay: competitive ELISA on hMCAM-His, competitor biotinylated rodent or chimeric 2107; Expt. #2; vs rodent 2107
Method: (§1) ELISA plates were coated with recombinant hMCAM-His, and blocked with casein buffer to prevent non-specific binding. Biotinylated rodent or chimeric antibody was added at a subsaturating concentration, in the presence or absence of 3× increasing concentrations of unlabeled competitor (humanized antibody, rodent, or chimeric). After washing to remove unbound antibody, streptavidin HRP was added to allow detection of the biotinylated antibody. The ELISA was developed with TMB substrate and the OD450 was measured. The IC50 of the unlabeled competitor was determined using the GraphPad Prism5 software.

[3] = biological target: T2, human MCAM (melanoma cell adhesion molecule) expressed on transfected CHO cells (human, UniProt P43121 24-646); assay: laminin/FACS on hMCAM CHO cells, competitor laminin 411; Expt#2; seems to serve as the reference of the 2107 family in this column
T2 construct: also called hMCAM; CD146
T2 chain: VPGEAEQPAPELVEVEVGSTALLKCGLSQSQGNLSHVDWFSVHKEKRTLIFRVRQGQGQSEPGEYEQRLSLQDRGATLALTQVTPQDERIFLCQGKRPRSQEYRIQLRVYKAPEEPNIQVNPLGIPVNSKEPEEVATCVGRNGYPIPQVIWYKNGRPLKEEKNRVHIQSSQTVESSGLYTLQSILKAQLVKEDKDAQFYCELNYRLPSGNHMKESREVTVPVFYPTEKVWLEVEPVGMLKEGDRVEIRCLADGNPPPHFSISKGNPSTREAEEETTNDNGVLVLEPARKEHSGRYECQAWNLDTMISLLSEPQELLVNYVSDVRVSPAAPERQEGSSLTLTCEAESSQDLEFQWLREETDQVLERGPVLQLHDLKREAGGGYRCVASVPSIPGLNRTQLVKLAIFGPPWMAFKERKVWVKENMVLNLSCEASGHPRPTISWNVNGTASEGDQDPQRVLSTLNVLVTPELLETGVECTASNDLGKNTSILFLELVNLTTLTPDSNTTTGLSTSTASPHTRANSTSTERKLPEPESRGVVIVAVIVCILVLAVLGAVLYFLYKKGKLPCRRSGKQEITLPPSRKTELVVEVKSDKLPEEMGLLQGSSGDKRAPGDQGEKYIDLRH

recombinant hMCAM-His [4] = biological target: T1, recombinant hMCAM-His; assay: summary of ForteBio and competitive ELISA on hMCAM-His; vs rodent 2120
Method: as §1
(§2) The affinities were measured using the ForteBio Octet Red. Anti-human Fc sensors were used to capture the humanized antibodies, and several concentrations of hMCAMHis analyte were used to determine the affinity using a 1:1 fitting model.

recombinant hMCAM-His [5] = biological target: T1, recombinant hMCAM-His; assay: ForteBio Octet Red, hMCAM-His analyte; Forte column 1; vs rodent 2120
Method: as §2

recombinant hMCAM-His [6] = biological target: T1, recombinant hMCAM-His; assay: ForteBio Octet Red, hMCAM-His analyte; Forte column 2; vs rodent 2120
Method: as §2

[7] = biological target: T2, human MCAM (melanoma cell adhesion …); assay: laminin/FACS on hMCAM CHO cells, competitor laminin 411; Expt#1; vs rodent 2120
Method: (§3) Following incubation for 30-45 minutes, the cells were washed and anti-laminin conjugated to AF650 (NovusBio) was added to detect the bound laminin. The cells were run on a flow cytometer to measure the laminin binding signal.

[8] = biological target: T2, human MCAM (melanoma cell adhesion …); assay: laminin/FACS on hMCAM CHO cells, competitor laminin 411; Expt#2; vs rodent 2120
Method: as §3

[9] = biological target: T2, human MCAM (melanoma cell adhesion …); assay: summary of laminin blocking assay on hMCAM CHO cells, competitor laminin 411; vs rodent 2120
Method: as §3

recombinant hMCAM-His [10] = biological target: T1, recombinant hMCAM-His; assay: competitive ELISA on hMCAM-His, competitor biotinylated rodent or chimeric 2120; vs rodent 2120
Method: as §1

[11] = biological target: T2, human MCAM (melanoma cell adhesion …); assay: laminin/FACS blocking assay, % inhibition of laminin 411 binding to hMCAM-expressing CHO cells against antibody concentration; blocked ligand: laminin 411
Method: as §3

[12] = biological target: T3, recombinant human laminin 511 (Biolamina) (human, UniProt O15230 36-3695; P07942 22-1786; P11047 34-1609); assay: SPR, Biacore T200
T3 construct: negative control; also called laminin 10 (α5β1γ1)

[13] = biological target: T4, Recombinant human laminin-α4 (R&D systems) (human, UniProt Q16363-2 826-1816); assay: SPR, Biacore T200, Fc-tagged MCAM IgG1-2A captured by anti-Fc, laminin-α4 as analyte, 1:1 model
T4 construct: also called laminin α-4 chain
T4 sequence (looked up): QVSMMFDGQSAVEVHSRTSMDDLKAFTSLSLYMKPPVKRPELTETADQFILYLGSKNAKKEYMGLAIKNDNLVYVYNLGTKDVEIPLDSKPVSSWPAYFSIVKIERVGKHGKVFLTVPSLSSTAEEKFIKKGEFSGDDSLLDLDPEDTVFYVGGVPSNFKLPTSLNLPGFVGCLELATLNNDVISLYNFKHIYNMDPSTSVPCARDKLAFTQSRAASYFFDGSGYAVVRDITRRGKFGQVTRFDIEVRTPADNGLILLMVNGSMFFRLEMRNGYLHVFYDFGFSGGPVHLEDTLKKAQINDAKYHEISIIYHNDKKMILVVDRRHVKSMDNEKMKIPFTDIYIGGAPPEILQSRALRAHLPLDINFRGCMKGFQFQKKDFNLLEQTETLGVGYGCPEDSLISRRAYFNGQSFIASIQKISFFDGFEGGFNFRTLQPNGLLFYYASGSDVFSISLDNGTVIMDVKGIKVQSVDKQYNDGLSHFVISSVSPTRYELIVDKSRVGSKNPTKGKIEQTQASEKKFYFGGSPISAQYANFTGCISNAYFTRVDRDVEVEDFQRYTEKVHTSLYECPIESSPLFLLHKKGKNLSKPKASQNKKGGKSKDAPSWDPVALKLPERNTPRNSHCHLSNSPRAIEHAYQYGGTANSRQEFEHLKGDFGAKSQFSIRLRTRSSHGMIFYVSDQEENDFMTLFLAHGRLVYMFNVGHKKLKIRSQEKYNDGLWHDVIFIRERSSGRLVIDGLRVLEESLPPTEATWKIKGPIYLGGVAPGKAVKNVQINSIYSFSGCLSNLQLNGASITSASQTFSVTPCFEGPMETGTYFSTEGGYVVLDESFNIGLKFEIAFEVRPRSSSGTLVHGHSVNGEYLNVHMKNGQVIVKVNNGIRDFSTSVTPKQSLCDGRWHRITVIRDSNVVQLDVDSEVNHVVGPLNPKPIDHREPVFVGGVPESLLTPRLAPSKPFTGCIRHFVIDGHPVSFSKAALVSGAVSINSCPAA
Method: (§4) The binding affinity of the human laminin-α4 to human MCAM IgG1-2A was measured by Surface Plasmon Resonance on a Biacore T200 machine. Human Fc-specific F(ab′)₂ IgG (Jackson Laboratories) was immobilized on a CM5 chip using amine coupling. The four flow cells of the CM5 chips dextran surface are activated by a 7 min injection of freshly prepared 1:1 50 mM NHS: EDC at a flow rate of 5 μl/min. 70 μl IgG solution (pH 4.5) was injected for 3 min to a density of up to 3 000 RU. The coupling is then blocked by a 7 min injection of 1M ethanolamine to deactivate residual reactive sites. Recombinant human Fc-tagged MCAM IgG1-2A in degassed and filtered HBS-P buffer containing 12 mg/ml BSA and 12 mg/ml carboxy-methylated dextran sodium salt was captured by anti-Fc IgG to a capture level 1560 RU. Recombinant human Fc-tagged MCAM IgG1-2A was centrifuged at 14 000 rpm for 5 min at 4° C. before injection for 20 min at a flow rate of 5 μl/min over the anti-Fc IgG containing surface. Flow cell 1 was left free of IgG to serve as a control surface. One flow cell was used to capture recombinant human IgG1 Fc (R&D systems) to serve as a negative control. […] Buffer injections served as negative control. Data evaluation: Data from the buffer injections and the control surface were subtracted to remove artifacts. […]

[14] = biological target: T5, recombinant human laminin 411 (Biolamina) (human, UniProt Q16363 25-1823; P07942 22-1786; P11047 34-1609); assay: SPR, Biacore T200, Fc-tagged MCAM IgG1-2A captured by anti-Fc, laminin 411 as analyte, steady state
T5 construct: also called laminin 8
Method: as §4

T5 sequence (P07942 22-1786, chain 2 of 2): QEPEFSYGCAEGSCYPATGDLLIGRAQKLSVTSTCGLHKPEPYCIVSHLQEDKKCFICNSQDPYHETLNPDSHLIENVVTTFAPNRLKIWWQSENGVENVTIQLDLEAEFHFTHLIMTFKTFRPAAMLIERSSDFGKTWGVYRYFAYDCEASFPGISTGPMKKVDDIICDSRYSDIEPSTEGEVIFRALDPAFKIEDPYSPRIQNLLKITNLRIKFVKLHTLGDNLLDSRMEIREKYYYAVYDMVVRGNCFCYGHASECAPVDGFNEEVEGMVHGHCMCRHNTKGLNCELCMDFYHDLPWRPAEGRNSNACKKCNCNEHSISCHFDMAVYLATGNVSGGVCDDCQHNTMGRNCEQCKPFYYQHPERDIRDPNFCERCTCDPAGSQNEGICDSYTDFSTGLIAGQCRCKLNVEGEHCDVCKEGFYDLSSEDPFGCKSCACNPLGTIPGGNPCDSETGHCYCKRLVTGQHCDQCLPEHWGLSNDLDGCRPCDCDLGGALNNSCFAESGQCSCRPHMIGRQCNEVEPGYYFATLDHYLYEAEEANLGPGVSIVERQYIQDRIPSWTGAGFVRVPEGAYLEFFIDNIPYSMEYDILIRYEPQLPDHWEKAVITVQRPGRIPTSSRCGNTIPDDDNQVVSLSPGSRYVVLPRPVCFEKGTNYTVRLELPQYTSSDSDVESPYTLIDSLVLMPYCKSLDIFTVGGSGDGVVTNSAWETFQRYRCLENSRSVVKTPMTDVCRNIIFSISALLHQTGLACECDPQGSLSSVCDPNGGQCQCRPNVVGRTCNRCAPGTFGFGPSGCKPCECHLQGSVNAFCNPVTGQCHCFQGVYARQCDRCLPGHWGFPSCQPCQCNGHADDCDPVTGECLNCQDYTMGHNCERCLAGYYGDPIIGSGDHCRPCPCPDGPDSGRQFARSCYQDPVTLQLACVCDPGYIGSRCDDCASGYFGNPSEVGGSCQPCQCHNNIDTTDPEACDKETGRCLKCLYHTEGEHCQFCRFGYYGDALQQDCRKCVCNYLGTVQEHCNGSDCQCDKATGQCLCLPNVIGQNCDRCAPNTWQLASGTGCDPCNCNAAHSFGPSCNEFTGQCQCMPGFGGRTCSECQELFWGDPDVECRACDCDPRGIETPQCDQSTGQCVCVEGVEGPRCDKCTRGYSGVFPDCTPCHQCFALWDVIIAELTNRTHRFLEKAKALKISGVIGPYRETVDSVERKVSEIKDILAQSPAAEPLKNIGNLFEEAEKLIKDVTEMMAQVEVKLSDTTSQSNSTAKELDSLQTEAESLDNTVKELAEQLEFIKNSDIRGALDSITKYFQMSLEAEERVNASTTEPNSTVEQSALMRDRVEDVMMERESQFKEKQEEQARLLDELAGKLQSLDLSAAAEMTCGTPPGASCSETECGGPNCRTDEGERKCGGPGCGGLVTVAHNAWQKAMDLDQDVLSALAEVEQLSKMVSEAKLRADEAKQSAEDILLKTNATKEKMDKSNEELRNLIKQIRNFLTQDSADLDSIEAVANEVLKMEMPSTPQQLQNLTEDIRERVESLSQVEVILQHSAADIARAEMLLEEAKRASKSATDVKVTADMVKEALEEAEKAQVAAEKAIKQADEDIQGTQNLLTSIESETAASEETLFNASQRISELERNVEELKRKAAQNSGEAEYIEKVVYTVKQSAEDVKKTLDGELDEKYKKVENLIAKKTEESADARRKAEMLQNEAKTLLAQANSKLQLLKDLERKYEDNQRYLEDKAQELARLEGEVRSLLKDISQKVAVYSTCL
T5 sequence (P11047 34-1609, chain 3 of 2): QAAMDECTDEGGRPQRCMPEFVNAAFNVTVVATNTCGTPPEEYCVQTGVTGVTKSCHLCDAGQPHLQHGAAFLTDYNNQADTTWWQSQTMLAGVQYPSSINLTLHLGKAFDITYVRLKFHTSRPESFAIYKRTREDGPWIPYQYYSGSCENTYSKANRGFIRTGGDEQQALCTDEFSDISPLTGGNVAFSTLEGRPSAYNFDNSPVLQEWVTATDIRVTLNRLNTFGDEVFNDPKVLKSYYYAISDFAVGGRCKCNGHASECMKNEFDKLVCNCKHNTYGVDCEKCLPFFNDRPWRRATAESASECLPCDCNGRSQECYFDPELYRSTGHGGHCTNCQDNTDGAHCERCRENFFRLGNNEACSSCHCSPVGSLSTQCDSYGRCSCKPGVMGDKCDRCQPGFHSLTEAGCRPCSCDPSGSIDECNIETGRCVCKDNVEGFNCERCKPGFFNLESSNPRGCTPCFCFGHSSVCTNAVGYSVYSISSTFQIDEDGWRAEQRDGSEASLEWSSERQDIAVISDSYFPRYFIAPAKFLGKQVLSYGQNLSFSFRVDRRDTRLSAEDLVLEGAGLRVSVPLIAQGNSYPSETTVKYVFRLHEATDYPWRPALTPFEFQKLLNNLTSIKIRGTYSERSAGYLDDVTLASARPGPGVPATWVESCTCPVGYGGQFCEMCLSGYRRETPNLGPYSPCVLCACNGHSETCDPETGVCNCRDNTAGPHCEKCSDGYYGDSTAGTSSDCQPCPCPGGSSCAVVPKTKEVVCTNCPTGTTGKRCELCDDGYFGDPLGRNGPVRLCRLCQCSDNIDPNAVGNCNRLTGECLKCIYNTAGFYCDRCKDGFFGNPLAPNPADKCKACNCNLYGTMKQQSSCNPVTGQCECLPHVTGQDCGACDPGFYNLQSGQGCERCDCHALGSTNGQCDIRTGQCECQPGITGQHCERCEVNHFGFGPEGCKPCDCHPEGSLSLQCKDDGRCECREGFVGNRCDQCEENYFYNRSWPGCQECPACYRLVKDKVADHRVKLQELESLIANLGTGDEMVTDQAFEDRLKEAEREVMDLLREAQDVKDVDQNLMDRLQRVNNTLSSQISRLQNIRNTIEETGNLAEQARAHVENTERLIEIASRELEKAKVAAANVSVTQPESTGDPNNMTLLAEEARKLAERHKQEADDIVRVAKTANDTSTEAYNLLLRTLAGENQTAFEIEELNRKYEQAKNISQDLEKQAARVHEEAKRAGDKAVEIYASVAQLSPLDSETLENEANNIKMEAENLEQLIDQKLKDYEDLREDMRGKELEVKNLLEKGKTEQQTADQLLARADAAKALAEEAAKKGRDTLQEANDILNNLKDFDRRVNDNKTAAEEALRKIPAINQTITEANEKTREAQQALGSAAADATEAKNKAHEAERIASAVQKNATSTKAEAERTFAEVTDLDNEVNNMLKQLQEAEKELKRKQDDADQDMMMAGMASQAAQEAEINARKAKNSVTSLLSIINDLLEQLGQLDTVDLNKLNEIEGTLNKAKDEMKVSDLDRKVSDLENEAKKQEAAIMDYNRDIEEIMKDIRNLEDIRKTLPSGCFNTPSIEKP

fold over rodent (competitive ELISA) (recombinant hMCAM-His [1]): 0.68 fold
fold over rodent (competitive ELISA) (recombinant hMCAM-His [2]): 1.01 fold
fold over rodent (blocking, laminin/FACS) [3]: 1 fold
B1: chimeric 2107 (antibody, V domains shown)
VH: QVQLKESGPGLVQSSQTLSLTCTVSGFSLTSNGVSWVRQPPGKGLEWIAAISSGGSTYYNSAFKSRLSISRNTSKSQVLLKMNSLQTEDTGMYFCARHRPFYFDYWGQGVMVTVSS
VL: DIQVTQSPSLLSASVGDRVTLNCKGSQNIYKSLAWFRLKRGEAPKLLIYDANSLQTGIPSRFSGSGSGTDFTLTITSLQPEDVATYFCQQYYSGYTFGAGTKLELK

fold reduction in affinity compared to the rodent (recombinant hMCAM-His [4]): < 2 fold
fold over rodent (Forte affinity) (recombinant hMCAM-His [5]): 1.1 fold
fold over rodent (Forte affinity) (recombinant hMCAM-His [6]): 1.2 fold
fold over rodent (blocking, laminin/FACS) [7]: 1.2 fold
fold over rodent (blocking, laminin/FACS) [8]: 1.5 fold
fold reduction in potency compared to the rodent [9]: < 2 fold
fold over rodent (competitive ELISA) (recombinant hMCAM-His [10]): 2.4 fold
IC50 (read off the curve) [11]: ~0.6 µg/mL
B2: h2120_VH5 + h2120_VL3 (antibody, human IgG1, V domains shown)
VH: QVTLKESGPVLVKPTETLTLTCTVSGFSLTSNAVSWVRQPPGKALEWIAAISSGGTTYYNSAFKSRLTISRDTSKSQVVLTMTNMDPVDTATYYCARRYGYGWYFDFWGQGTLVTVSS
VL: DIQMTQSPSSLSASVGDRVTINCKASQNIYNSLAWYQQKPGKAPKVLIFNANSLQTGIPSRFSGSGSGTDFTLTISSLQPEDFATYYCQQFYSGYTFGQGTKLEIK
notes: also called h2120VH5VL3; VH5VL3

binding result [12]: no binding (tested: 5-175 nM)
Kd [13]: 60 nM
Kd [14]: 66 nM
B3: Recombinant human Fc-tagged MCAM IgG1-2A (human MCAM domains 1 and 2, amino acids 19-242) (Fc fusion)
chain: PRVAGVPGEAEQPAPELVEVEVGSTALLKCGLSQSQGNLSHVDWFSVHKEKRTLIFRVRQGQGQSEPGEYEQRLSLQDRGATLALTQVTPQDERIFLCQGKRPRSQEYRIQLRVYKAPEEPNIQVNPLGIPVNSKEPEEVATCVGRNGYPIPQVIWYKNGRPLKEEKNRVHIQSSQTVESSGLYTLQSILKAQLVKEDKDAQFYCELNYRLPSGNHMKESREVT
notes: also called human MCAM IgG1-2A; MCAM Fc domains 1 and 2; not shown: human Fc tag
